Laboratory results taken from the DeepSol protein solubility set.

Test: soluble on expression in E. coli; label from the status in PepcDB or PDB records
With “MASHKLLVTPPKALLKPLSIPNQLLLGPGPSNLPPRIMAAGGLQMIGSMSKDMYQIMDEIKEGIQYVFQTRNPLTLVISGSGHCALEAALVNVLEPGDSFLVGANGIWGQRAVDIGERIGARVHPMTKDPGGHYTLQEVEEGLAQHKPVLLFLTHGESSTGVLQPLDGFGELCHRYKCLLLVDSVASLGGTPLYMDRQGIDILYSGSQKALNAPPGTSLISFSDKAKKKMYSRKTKPFSFYLDIKWLANFWGCDDQPRMYHHTIPVISLYSLRESLALIAEQGLENSWRQHREAAAYLHGRLQALGLQLFVKDPALRLPTVTTVAVPAGYDWRDIVSYVIDHFDIEIMGGLGPSTGKVLRIGLLGCNATRENVDRVTEALRAALQHCPKKKL” the “soluble on expression in E. coli” value was “soluble”. In the case of “MASIMYTPKDIFEQEFKSSMRGYDKKEVDEFLDDIIKDYETYISTIEELRQENTRLKEEVKQAKKRQEAAQTTVSPAASVSSSRVATTATNFDILKRISRLEKEVFGKQITE”, the “soluble on expression in E. coli” value is reported as “not soluble”. For “MASISRFRGCLAGALLGDCVGAVYEAHDTVSLASVLSHVESLEPDPGTPGSARTETLYYTDDTAMTRALVQSLLAKEAFDEVDMAHRFAQEYKKDPDRGYGAGVITVFKKLLNPKCRDVYEPARAQFNGKGSYGNGGAMRVAGISLAYSSVQDVQKFARLSAQLTHASSLGYNGAILQALAVHLALQGVSSSEHFLEQLLGHMEELEGDAQSVLDAKELGMEERPYSSRLKKVGELLDQDVVSREEVVSELGNGIAAFESVPTAIYCFLRCMEPHPEIPSTFNSLQRTLIYSISLGGDTDTIATMAGAIAGAYYGMEQVPESWQQSCEGFEETDVLAQSLHRVFQES”, the “soluble on expression in E. coli” value was “soluble”. For “MASKKREVQLQSVVNSQNLWDEMLLNKGLTVIDVYQAWCGPCKAVQSLFRKLKNELNEDEILHFVVAEADNIVTLQPFRDKCEPVFLFSLNGKIIAKIQGANAPLINRKVITLIDEERKIVAGEMDRPQYVEIPLVDAIDEEYGEVQYESAAEVYNMAIIKPDAVLMRKNIEVREKIAKEGFVIEIQENLILPEEVVREFYTHIADQPDFEEFVVSMTNGLSCVLIVSQEDSEVIQEETLPQTDTEEEPGVLEEPHVRFAPVMIKKKRDSLQEYMDRQYMSDYCDVEDDAVKVFKLIDILFPDFKTMKSTNVQTTLALLHPDICEEEKDDVLNVIHNEGFTILMQRQIVLSEEEARTVCKIHENEEYFDNLIGHMTSNHSYVLALRRENGVEYWKTLIGPKTIEEAYASHPQSLCVQFASGNFPTNQFYGSSSKAAAEKEIAHFFPPQSTLALIKPHVTHKERIHRSSRR”, the “soluble on expression in E. coli” value was “not soluble”. With “MASKSQKKVLKKQNKKKKKDPLAPKRALSAYMFYVKDKRLEIIKEKPELAKDVAQVGKLIGEAWGQLSPAQKAPYEKKAQLDKVRYSKEIEEYRKKNQE” the “soluble on expression in E. coli” value was “soluble”. For “MASLLFRQARVFDGESVHTDYDVLVVDGKIAQLGSAIEAPADAEIIEAHGKTLLPGLIDSHTHAKPPALEMALTFGVTTELDMFSDPAWMTEQRREAQTRNSMADVRSAMTGASVAGGHPTGLVGVVFDKQCPVLENAEDAEAFVAARVAEGADYFKLVIEDGTILGHEVPRLSDEMVYALVAAAHAQGLMAVAHAMTVELALLAIRAGVDGLMHVAGDRLMTDEEVAEVAQSGIFVVPTLSTMASVYGDKHGQHLAEDDRTRPLLSDAWAENLCQCWHLTNPGSTANVIDATRRLYEAGVDVLAGSDAVTVGVPGTAHGVSMHGELELLVDCGLSPAAALRAATLLPAKRFSLDDRGRIAPGLQADLVLVDGDPTTDVRQTLSIEGVWRRGEQAPRIGQAEGVGTASAASAVAG”, the “soluble on expression in E. coli” value was “soluble”. For “MASLRDIKAKINSTKKTSQITKAMEMVSASKLNRAEQNAKSFVPYMEKIQEVVASIAQGSKGINHPMLNARPVKRTGYIVITSDRGLAGGYNSNVLRTVSNVIRERHNMDSNQYSIIVLGRLGRDYLKRRGFNIIDEVVGLSDHPSFTDIKDLASRAIAMFADGAYDELYIYYNHYVSKISQEVTENKILPLTDVASDKPTTAYEFEPSEEEILKVLLPQYAESLVYGALLDGKASEHAARMTAMKSATDNAMEVIDSLTLSFNRARQAAITQEITEIVGGAAALE”, the “soluble on expression in E. coli” value was “not soluble”. With “MASMTGGQQMGRGMAGPEIVKLKKILREKAVPPGTEVPLDVMRKGMEKVAFKAADDIQVEQVTVAGCAAEWVRAPGCQAGKAILYLHGGGYVMGSINTHRSMVGEISRASQAAALLLDYRLAPEHPFPAAVEDGVAAYRWLLDQGFKPQHLSISGDSAGGGLVLAVLVSARDQGLPMPASAIPISPWADMTCTNDSFKTRAEADPMVAPGGINKMAARYLNGADAKHPYASPNFANLKGLPPLLIHVGRDEVLLDDSIKLDAKAKADGVKSTLEIWDDMIHVWHAFHPMLPEGKQAIVRVGEFMREQWAALAAALEHHHHHH” the “soluble on expression in E. coli” value was “soluble”. In the case of “MASNQIEGAVVGIRVNDGIAAAPVVLFTHEMPAVPERDFQSEQGEIERVKRAIGVVVQHLQEQAKQPKGEIFSAHSMMLSDPELWASVESRIQTGMIAEQAWIESLQTLADEFRQAESQYMREREADVHDIARQVMVEMTGVTPNAIDIQEPSILLARDLMPSDVAGLDKSKVLGICLSEGGKTSHSAILARAMGIPAMVKAQGCLDAVRAGQVVTIDGFRGHLWFSPSDAIQQELEAQQIEWQSTRQSALASAQQA”, the “soluble on expression in E. coli” value is reported as “not soluble”. With “MASRKTVNRRQRPQRATSNVFAMFDQAQIQEFKEAFNMIDQNRDGFIDQEDLKDMFASLGKEVTEQFIDSMINEAPGAQPINFTMFLTLFGEKLTGTDPEEVIRNAFQCFDEDNSGKLNEEHLRELLTTMGERYSEEQVDELFRDAPIKGGQFDYVEFTRMLKHGTKDKDEA” the “soluble on expression in E. coli” value was “not soluble”. For “MASSMRSLFSDHGKYVESFRRFLNHSTEHQCMQEFMDKKLPGIIGRIGDTKSEIKILSIGGGAGEIDLQILSKVQAQYPGVCINNEVVEPSAEQIAKYKELVAKTSNLENVKFAWHKETSSEYQSRMLEKKELQKWDFIHMIQMLYYVKDIPATLKFFHSLLGTNAKMLIIVVSGSSGWDKLWKKYGSRFPQDDLCQYITSDDLTQMLDNLGLKYECYDLLSTMDISDCFIDGNENGDLLWDFLTETCNFNATAPPDLRAELGKDLQEPEFSAKKEGKVLFNNTLSFIVIEA”, the “soluble on expression in E. coli” value was “soluble”. In the case of “MASTPRIVIIGAGIVGTNLADELVTRGWNNITVLDQGPLNMPGGSTSHAPGLVFQTNPSKTMASFAKYTVEKLLSLTEDGVSCFNQVGGLEVATTETRLADLKRKLGYAAAWGIEGRLLSPAECQELYPLLDGENILGGLHVPSDGLASAARAVQLLIKRTESAGVTYRGSTTVTGIEQSGGRVTGVQTADGVIPADIVVSCAGFWGAKIGAMIGMAVPLLPLAHQYVKTTPVPAQQGRNDQPNGARLPILRHQDQDLYYREHGDRYGIGSYAHRPMPVDVDTLGAYAPETVSEHHMPSRLDFTLEDFLPAWEATKQLLPALADSEIEDGFNGIFSFTPDGGPLLGESKELDGFYVAEAVWVTHSAGVAKAMAELLTTGRSETDLGECDITRFEDVQLTPEYVSETSQQNFVEIYDVLHPLQPRLSPRNLRVSPFHARHKELGAFFLEAGGWERPYWFEANAALLKEMPAEWLPPARDAWSGMFSSPIAAAEAWKTRTAVAMYDMTPLKRLEVSGPGALKLLQELTTADLAKKPGAVTYTLLLDHAGGVRSDITVARLSEDTFQLGANGNIDTAYFERAARHQTQSGSATDWVQVRDTTGGTCCIGLWGPLARDLVSKVSDDDFTNDGLKYFRAKNVVIGGIPVTAMRLSYVGELGWELYTSADNGQRLWDALWQAGQPFGVIAAGRAAFSSLRLEKGYRSWGTDMTTEHDPFEAGLGFAVKMAKESFIGKGALEGRTEEASARRLRCLTIDDGRSIVLGKEPVFYKEQAVGYVTSAAYGYTVAKPIAYSYLPGTVSVGDSVDIEYFGRRITATVTEDPLYDPKMTRLRG”, the “soluble on expression in E. coli” value is reported as “soluble”. With “MATAAASVVSSETGDLRAYMAANPAAVIEEVAKQWNVSPHAVIAALPDGMARLGPGDGFVAAMNDIATWGEVTLIVHTEDAIFEFTGEVPRGEISRGYFNLMQPKGLHGHLRHDRCGALAFVERPFMGKASAFVAFLNRDGGIMFKVFVGRDANRELRADQLARFHALAKQFSEEHSALEHHHHHH” the “soluble on expression in E. coli” value was “not soluble”. In the case of “MATEIDINRIQKDIFIEHKGEPYRVLDYEHVKPGKGQAFVRVKAKNMLTGNVTELTFKASDRIPLADFEQVYATYSYNDGENYYFMNTQTYDMIAVPKEKIEEEAKFLKEGMEVIVFLYKGQPIGIELPKHVELQVVETEPAFKGDTQAGGTKPAKLETGAVIQVPFFVKEGDIVKVDTRTGSYVERVKEAK”, the “soluble on expression in E. coli” value is reported as “soluble”. With “MATEVTFFDELKIDNKVDIIGNNVRGELPNIWLQYGQFKLKASGGDGTYSWYSENTSIATVDASGKVTLNGKGSVVIKATSGDKQTVSYTIKAPSYMIKVDKQAYYADAMSICKNLLPSTQTVLSDIYDSWGAANKYSHYSSMNSITAWIKQTSSEQRSGVSSTYNLITQNPLPGVNVNTPNVYAVCVE” the “soluble on expression in E. coli” value was “soluble”. With “MATFESSLKPRLIYVFAIADARHEGSLKIGETTLNDDVGSASTEPNSEVLNKAAKARIDQYTKTAGIGYELLYTELTIYFSGGRVCSFNDKQVHSVLERSGVKRKSFAGATEWYSCDLATVKRAISAIKEGKDSLGASEVTLSDNPIILRPEQKEAIERTLKQFRKGNKMLWNAKMRFGKTLCALRVAKEMEAVRTIIITHRPVVDASWFEDFGKTFYDRPEWHYGSRSKGESFASLEKLASQGKKCVYFASMQDMRGSKDVGGKFDKNNEVFSTSWDLVIVDEAHEGTQTELGKAVLGQLMGKDTKALHLSGTPYNLFDQHKEEEVFTWDYVMEQQAKIDWEINHLGDTNPYASLPAIHIYTYDLGRLISEYSDEEKAFNFREFFRTREDGSFVHEGDIDRFLSLLCREDEEALYPYSNEHFRQIFRHTLWILPGVRAAKALSKKLSKHPIFGLFKVANVAGDGDDEEEESRDALELVNQAIGKDPDETYTITLSCGRLTTGVSIKP” the “soluble on expression in E. coli” value was “not soluble”. In the case of “MATIDSMNKDTTRLSDGPDWTFDLLDVYLAEIDRVAKLYRLDTYPHQIEVITSEQMMDAYSSVGMPINYPHWSFGKKFIETERLYKHGQQGLAYEIVINSNPCIAYLMEENTITMQALVMAHACYGHNSFFKNNYLFRSWTDASSIVDYLIFARKYITECEERYGVDEVERLLDSCHALMNYGVDRYKRPQKISLQEEKARQKSREEYLQSQVNMLWRTLPKREEEKTVAEARRYPSEPQENLLYFMEKNAPLLESWQREILRIVRKVSQYFYPQKQTQVMNEGWATFWHYTILNHLYDEGKVTERFMLEFLHSHTNVVFQPPYNSPWYSGINPYALGFAMFQDIKRICQSPTEEDKYWFPDIAGSDWLETLHFAMRDFKDESFISQFLSPKVMRDFRFFTVLDDDRHNYLEISAIHNEEGYREIRNRLSSQYNLSNLEPNIQIWNVDLRGDRSLTLRYIPHNRAPLDRGRKEVLKHVHRLWGFDVMLEQQNEDGSVELLERCPPRMGNL”, the “soluble on expression in E. coli” value is reported as “not soluble”. With “MATIGTFKKSGNEFSGEIVTLSVQAKGVRIVPESNRSGDNAPSHRVYVGRAEIGAAWSKTSNEGREYLGLKLDDPSFTAPIYANLFDDEEGDTFSLIWSRAAKRNGD” the “soluble on expression in E. coli” value was “not soluble”. With “MATIHPPAYLLDQAKRRFTPSFNNFPGMSLVEHMLLNTKFPEKKLAEPPPGSGLKPVVGDAGLPILGHMIEMLRGGPDYLMFLYKTKGPVVFGDSAVLPGVAALGPDAAQVIYSNRNKDYSQQGWVPVIGPFFHRGLMLLDFEEHMFHRRIMQEAFVRSRLAGYLEQMDRVVSRVVADDWVVNDARFLVYPAMKALTLDIASMVFMGHEPGTDHELVTKVNKAFTITTRAGNAVIRTSVPPFTWWRGLRARELLENYFTARVKERREASGNDLLTVLCQTEDDDGNRFSDADIVNHMIFLMMAAHDTSTSTATTMAYQLAAHPEWQQRCRDESDRHGDGPLDIESLEQLESLDLVMNESIRLVTPVQWAMRQTVRDTELLGYYLPKGTNVIAYPGMNHRLPEIWTDPLTFDPERFTEPRNEHKRHRYAFTPFGGGVHKCIGMVFDQLEIKTILHRLLRRYRLELSRPDYQPRWDYSAMPIPMDGMPIVLRPR” the “soluble on expression in E. coli” value was “not soluble”.
